US20250312387A1, “BACTERIAL THERANOSTIC RADIOIMMUNOTHERAPY” (priority 2024, published 2025)

How the values were obtained:
[1] = tested on: MC38 tumor cells; format: in vivo, C57BL/6 mice; conditions: two hours after intravenous 10 nmol DOTA, mice injected intratumorally with Sal-o-DBP
Method: To determine the biodistribution of Sal-o-DBP, three groups of six-week old C57BL/6 mice were injected subcutaneously with 1×10^5 MC38 tumor cells. When tumors reached approximately 200 mm^3, the mice were injected intravenously or intratumorally with 1×10^7 CFU of Sal-o-DBP in 50 μL of saline, or intravenously with saline. Sixty hours after bacterial injection, mice were injected intraperitoneally (IP) with 100 mg arabinose in 400 μL saline. Sixty-six hours after bacterial injection mice were injected intravenously with 10 nmol DOTA in 50 μL of PBS. Two hours after DOTA injection, mouse tumors, spleens, livers, and kidneys were collected for biodistribution analysis. The organs were weighed before being homogenized in equal volumes of sterile PBS. Serial dilutions of the organ slurry were prepared (tumor 10^−5, spleen, liver, and kidney 10-2) and 50 μL of the dilutions were plated on LB agar plates containing 100 μg/mL carbenicillin and incubated overnight at 37° C. Colonies were counted and the total CFU/g was determined by the formula (colony count)×(dilution factor)[…].
To determine the biodistribution of DOTA, the organs were analyzed via inductively coupled plasma mass spectrometry (ICP-MS). Fifty μL of Iridium standard was added to each sample. The organ and water mixture was mixed with one mL of 3:1 nitric acid: hydrogen peroxide overnight. […]

[2] = cited from earlier work

## O=C(O)CN1CCN(CC(=O)O)CCN(CC(=O)O)CCN(CC(=O)O)CC1 [DOTA, 2,2′,2″,2″′-(1,4,7,10-tetraazacyclododecane-1,4,7,10-tetrayl)tetraacetic acid]
[1]
  biodistribution of DOTA in tumor, liver, spleen, and kidney: strong levels in the tumor and kidneys with some DOTA remaining in the liver and spleen

B1: 2D12.5: monoclonal anti-DOTA(radiometal) antibody / scFv, SEQ ID NO: 1 (protein)
scFv: QVKLQESGPGLVQPSQSLSITCTVSGFSLTDYGVHWVRQSPGKGLEWLGVIWSGGGTAYTAAFISRLNIYKDNSKNQVFFEMNSLQANDTAMYYCARRGSYPYNYFDVWGQGTTVTVSSGGGGSGGGGSGGGGSQAVVTQESALTTSPGETVTLTCRSSTGAVTTSNYANWVQEKPDHLFTGLIGGNNNRPPGVPARFSGSLIGDKAALTIAGTQTEDEAIYFCALWYSNHWVFGGGTRLTVLG
modifications: 2D12.5 scFv
[2]; monoclonal anti-DOTA(radiometal) antibody
  affinity for DOTA chelates of yttrium and lutetium: low nanomolar affinity
[2]; pure scFv, DOTA-biotin-Y, read-out: binding kinetics of free 2D12.5 to DOTA-biotin-Y
  Kd: 3.7 nM
